Reference: patent publication US10196445 (Bristol-Myers Squibb, dated 2019)
Values belong to the binder of their own block, whether it stands above or below them.

Molecular target: CTLA4 CD3 zeta on the 58 α-β-CTLA4 CD3 zeta expressing cell line (human)
Test: cell-based or functional assay

Sequence of CTLA4 CD3 zeta on the 58 α-β-CTLA4 CD3 zeta expressing cell line (human) (P16410 36-161): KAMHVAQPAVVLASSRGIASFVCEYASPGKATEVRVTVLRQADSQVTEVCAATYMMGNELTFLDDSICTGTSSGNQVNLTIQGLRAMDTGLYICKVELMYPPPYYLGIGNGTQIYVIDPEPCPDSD

EC50 of NK92 cell-mediated specific lysis (calcein release) of 58 α-β-CTLA4 CD3 zeta cells: 0.13 ng/mL
B1: ipilimumab (antibody, human IgG1, kappa, V domains shown)
VH: QVQLVESGGGVVQPGRSLRLSCAASGFTFSSYTMHWVRQAPGKGLEWVTFISYDGNNKYYADSVKGRFTISRDNSKNTLYLQMNSLRAEDTAIYYCARTGWLGPFDYWGQGTLVTVSS
VL: not shown

EC50 of NK92 cell-mediated specific lysis (calcein release) of 58 α-β-CTLA4 CD3 zeta cells: 0.0056 ng/mL
B2: non-fucosylated ipilimumab (antibody, human IgG1, kappa, V domains shown)
VH: B1 VH
VL: not shown
modifications: non-fucosylated (no fucose on the Asn297-linked oligosaccharide)
